Measurements as given in patent publication US20160158359A1 (JUNO THERAPEUTICS, published 2016).
Ends that are not written are not given here.

How the values were obtained:
[1] = biological target: T1, HLA-B*08:01 recombinant MHC class I molecule (human); assay: REVEAL MHC-peptide binding assay, stabilisation of ternary MHC-peptide complex, recombinant HLA
T1 construct: Recombinant MHC molecule of a bought assay service
Method: (§1) Specifically, assessment was of a series of overlapping 9-mer peptides derived from the sequence […] (set forth in SEQ ID NO: 7), which contains a portion of the CD28 transmembrane domain and 4-1BB costimulatory domain spanning the junction between the domains (bond joining the two amino acids noted in underline). In addition, a series of overlapping 9-mer peptides of each of a number of different variants of this portion also were assessed, each variant containing a mutation or mutations in this region as described in Example 2.
(§2) The various 9-mer overlapping peptides were synthesized and their purity tested by MALDI-TOF Mass Spectrometry.

[2] = biological target: T2, HLA-A*11:01 recombinant MHC class I molecule (human); assay: as above
T2 construct: Recombinant MHC molecule of a bought assay service
Method: as §1, §2

[3] = biological target: T3, recombinant HLA-A*03:01 MHC class I molecule (human); assay: REVEAL MHC-peptide binding assay, stabilisation of ternary complex with recombinant MHC
T3 construct: Recombinant MHC molecule incubated with each synthetic peptide; the assay measures how far the peptide stabilises the ternary MHC-peptide complex
Method: as §1, §2

[4] = biological target: T4, recombinant HLA-A*02:01 MHC class I molecule (human); assay: as above
T4 construct: Recombinant MHC molecule incubated with each synthetic peptide; the assay measures how far the peptide stabilises the ternary MHC-peptide complex; also called HLA-A2:01
Method: as §1, §2

[5] = biological target: T5, HLA-B*08:01 (recombinant MHC class I molecule) (human); assay: REVEAL MHC-peptide complex stabilisation assay, recombinant HLA-B*08:01
T5 construct: Recombinant MHC molecule of the ProImmune REVEAL assay; the test peptide is the third part of the ternary complex
Method: as §1, §2

[6] = biological target: T6, HLA-A*03:01 recombinant MHC class I molecule (human); assay: REVEAL MHC-peptide complex stabilisation assay, recombinant HLA-A*03:01
T6 construct: Recombinant MHC molecule incubated with synthetic peptide
Method: as §1, §2

WVKRGRKKA (Synthetic 9-mer)
In Vitro Score [1]: 3.1 % of positive control peptide (set at 100%)
In Vitro Score [2]: 3.1 % of positive control peptide (set at 100%)

WVQRGNKKS (not fully specified, Synthetic 9-mer; also called K29Q/L35S)
In Vitro Score [1]: 0 % of positive control peptide (set at 100%)
In Vitro Score [2]: 5 % of positive control peptide (set at 100%)

WVQRGNKKA (not fully specified, Synthetic 9-mer; also called K29Q/L35A)
In Vitro Score [1]: 0.7 % of positive control peptide (set at 100%)
In Vitro Score [2]: 0.8 % of positive control peptide (set at 100%)

AFIIFWVRR (Synthetic 9-mer)
In Vitro Score [1]: 0.3 % of positive control peptide (set at 100%)
In Vitro Score [2]: 1.5 % of positive control peptide (set at 100%)

B1: WVQRGNKKS synthetic 9-mer peptide (overlapping reference peptide 7, K29Q/L35S) (peptide)
peptide: WVQRGNKKS
modifications: not fully specified
notes: Variant 9-mer of the CD28-4-1BB junction region
In Vitro Score [3]: 0.7 score, % of positive control peptide (=100)
In Vitro Score [4]: 1.2 score, % of positive control peptide (=100)

B2: WVQRGNKKA synthetic 9-mer peptide (overlapping reference peptide 7, K29Q/L35A) (peptide)
peptide: WVQRGNKKA
modifications: not fully specified
notes: as for B1
In Vitro Score [3]: 1.2 score, % of positive control peptide (=100)
In Vitro Score [4]: 1.9 score, % of positive control peptide (=100)

B3: FWVKRGLKK (SEQ ID NO: 63) (peptide)
peptide: FWVKRGLKK
notes: synthetic 9-mer; the entry already carries the change; also called R32L
In Vitro Score [5]: 6.3 % of positive control peptide

B4: AFIIFWVRR synthetic 9-mer peptide (overlapping reference peptide 2, K29R) (peptide)
peptide: AFIIFWVRR
notes: as for B1
In Vitro Score [4]: 1.4 score, % of positive control peptide (=100)

B5: WVKRGRKKA synthetic 9-mer peptide (overlapping reference peptide 7, L35A) (peptide)
peptide: WVKRGRKKA
notes: Variant 9-mer of the CD28 transmembrane / 4-1BB costimulatory junction region of a CAR
In Vitro Score [3]: 0.9 score, % of positive control peptide (=100)
In Vitro Score [4]: 4.5 score, % of positive control peptide (=100)

IFWVQRGSK
In Vitro Score [6]: 0.3 % of positive control peptide
